Laboratory results reported in US20220143148A1, “COMPOSITIONS AND METHODS FOR MODULATING CGRP SIGNALING TO REGULATE INTESTINAL INNATE LYMPHOID CELLS” (The Broad Institute, Inc., priority 2019, published 2022).

System: small intestinal immune cells
Assay: Droplet-based scRNA-seq of small intestinal immune cells (LP and PP), OVA vs PBS, clustering and differential expression
Assay type: in vivo, mouse
Conditions: for percentage of expressing cells in OVA-treated group / LN (average fold change): cluster ID 12, LP
From the text: To comprehensively characterize small intestinal immune cells, Applicants generated scRNA-Seq profiles for 58,067 immune cells collected from lamina propria (LP) and Peyer's patch (PP) regions at steady state and after induction of a type 2 inflammatory reaction to ovalbumin (OVA) (Brandt et al., 2003) (FIGS. 1A and 8A). To ensure sufficient representation of rare cells, Applicants combined a normalization strategy—removing by flow sorting either a portion of IgD+ naïve B cells, which are the most abundant cell type in PPs, or all CD19+ and CD3+ T cells (FIG. 8B, Methods)—with profiling of a sufficiently large number of cells number (P>0.99 to recover at least 15 cells from each cluster, Methods) by massively parallel scRNA-seq (Haber et al., 2017) (Methods). Applicants obtained 36,797 and 21,270 high quality cells passing initial filtering (Methods) from PP and LP regions, respectively.
Overall, Applicants annotated 27 cell subsets across the two compartments, spanning T cells, B cells, ILCs, dendritic cells (DCs), myeloid cells and stromal cells, in frequencies ranging from 0.07% to 14%. Briefly, Applicants first partitioned the cells from the PP regions by unsupervised clustering (Methods) into 46 clusters, retained the 97% of cells that were robustly assigned cell identities in each cluster (Methods), assigned the cells from the LP regions to the 46 clusters using a classifier (Methods), and visualized the data with scvis (Ding et al., 2018), a deep generative model-based method (FIGS. 1B and 8C, Methods). Next, Applicants identified genes that were differentially expressed between the cells in each cluster and the remaining cells (Table 1, Methods), as well as between pairs of clusters (Table 2), to elucidate identities of similar cell types/states. Applicants excluded from downstream analysis clusters mostly consisting of contaminants from epithelium, likely doublets, or cells with a small number of Unique Molecular Identifiers (UMIs) (FIGS. 1C and 8D), or lacking distinct markers (Methods). Altogether, Applicants retained 27 clusters spanning 85% of the cells and each associated with distinct marker genes (FIG. 8E, Methods).
To induce allergic reaction to OVA, 6 to 7 weeks old mice were sensitized twice, two weeks apart, with 50 μg of OVA plus 1 mg of aluminum potassium sulfate adjuvant via intraperitoneal injection. Two weeks later, mice were orally administered with 50 mg of OVA on every other day for a total of five times. 1 μg of α-CGRP peptide was administered simultaneously when indicated. Mice were deprived of food for 3-4 hours in cages with wood chip bedding for limiting antigen degradation in the stomach before each intragastric challenge.
Isolation of cells from Peyer's patches (PPs). Peyer's patches (PPs) were carefully dissected from the small intestine under a stereo microscope using a fine scissor, pierced once with a fine forcep. Tissues were digested in freshly made digestion buffer (RPMI-1640 containing 100 μg/ml Liberase™ and 50 μg/ml DNase I at 37° C. on a roto-mixer. After 15 min, tissues were very gently mixed using a 1 ml pipette. The supernatant was collected and added to ice-cold MACS buffer (pH 7.4; PBS plus 2% FCS and 2 mM EDTA). Pre-warmed (37° C.) fresh digestion buffer was added to the remaining tissues. After rotation at 37° C. for 15 min, the mixture was vigorously mixed using a 1 ml pipette for 1 min. Supernatants from the two steps were combined and passed through 70 μm filters and stained for FACS (below).
Isolation of cells from the lamina propria (LP). The small intestines were opened longitudinally and washed in ice-cold PBS. For scRNA-seq, roughly 0.5 cm of fragments from each of the distal, middle and proximal regions without visible PPs were collected. Epithelial cells were dissociated by tissue rotation in pre-warmed (37° C.) PBS containing 10 mM EDTA at 37° C. for 15 min, followed by additional incubation on ice for 15 min. Tissues were then shaken vigorously. […]

B1: OVA (protein, UniProt P01012 2-386, looked up)
Ovalbumin: GSIGAASMEFCFDVFKELKVHHANENIFYCPIAIMSALAMVYLGAKDSTRTQINKVVRFDKLPGFGDSIEAQCGTSVNVHSSLRDILNQITKPNDVYSFSLASRLYAEERYPILPEYLQCVKELYRGGLEPINFQTAADQARELINSWVESQTNGIIRNVLQPSSVDSQTAMVLVNAIVFKGLWEKAFKDEDTQAMPFRVTEQESKPVQMMYQIGLFRVASMASEKMKILELPFASGTMSMLVLLPDEVSGLEQLESIINFEKLTEWTSSNVMEERKIKVYLPRMKMEEKYNLTSVLMAMGITDVFSSSANLSGISSAESLKISQAVHAAHAEINEAGREVVGSAEAGVDAASVSEEFRADHPFLFCIKHIATNAVLFFGRCVSP
Cluster ID 6, PP, OVA vs PBS
  Dnajc7: LN (average fold change): 0.197
  Dusp1: LN (average fold change): −0.366
  Dusp5: LN (average fold change): −0.167
  Dusp18: LN (average fold change): −0.789
  Egr1: LN (average fold change): −0.987
  Emp3: LN (average fold change): 0.172
  Erdr1: LN (average fold change): −0.520
  Fabp2: LN (average fold change): −1.495
  Fam46c: LN (average fold change): −0.440
  Filip1l: LN (average fold change): −0.295
  Fkbp5: LN (average fold change): 0.573
  Fosb: LN (average fold change): −0.556
  Fosl2: LN (average fold change): −0.387
  Foxp1: LN (average fold change): −0.169
  Fyn: LN (average fold change): −0.230
  Gapdh: LN (average fold change): 0.206
  Gapt: LN (average fold change): −0.204
  Gnb1: LN (average fold change): −0.247
  Grasp: LN (average fold change): −0.617
  Gtf2i: LN (average fold change): 0.283
  H2-Aa: LN (average fold change): 0.220
  H2-Ab1: LN (average fold change): 0.238
  H2-Eb1: LN (average fold change): 0.228
  H2afj: LN (average fold change): 0.166
  Hes6: LN (average fold change): 0.290
  Hist1h1c: LN (average fold change): 0.792
  Hist2h4: LN (average fold change): 1.036
  Ier2: LN (average fold change): −0.265
  Ier5: LN (average fold change): 0.332
  Ifi30: LN (average fold change): 0.256
  Ifrd1: LN (average fold change): −0.459
  Igha: LN (average fold change): 0.596
  Igkc: LN (average fold change): 0.194
  Itpkb: LN (average fold change): −0.230
  Jun: LN (average fold change): 0.499
  Junb: LN (average fold change): −0.174
  Jund: LN (average fold change): −0.422
  Kdm6b: LN (average fold change): −0.488
  Klf4: LN (average fold change): −0.763
  Klk1: LN (average fold change): 0.243
  Kmt2e: LN (average fold change): −0.156
  Lag3: LN (average fold change): 0.315
  Lgals1: LN (average fold change): 0.174
  Lmnb1: LN (average fold change): −0.415
  Ly6c1: LN (average fold change): −0.173
  Lyz1: LN (average fold change): −1.858
  Mcl1: LN (average fold change): −0.199
  Mcpt1: LN (average fold change): 0.479
  Mcpt2: LN (average fold change): 0.749
  Mir142hg: LN (average fold change): −0.649
  Mpeg1: LN (average fold change): 0.185
  Napsa: LN (average fold change): 0.245
  Neat1: LN (average fold change): 0.364
  Nfkbia: LN (average fold change): −0.191
  Nfkbiz: LN (average fold change): −0.288
  Npc2: LN (average fold change): 0.166
  Nr4a1: LN (average fold change): −0.422
  Nr4a3: LN (average fold change): −0.556
  Odc1: LN (average fold change): −0.325
  Os9: LN (average fold change): 0.265
  Pik3ip1: LN (average fold change): 0.445
  Pim1: LN (average fold change): −0.188
  Plek: LN (average fold change): −0.205
  Plekho2: LN (average fold change): −0.406
  Pltp: LN (average fold change): 0.260
  Pnrc1: LN (average fold change): −0.212
  Ppia: LN (average fold change): 0.186
  Ppp1r16b: LN (average fold change): −0.419
  Ppp2ca: LN (average fold change): −0.356
  Psap: LN (average fold change): 0.202
  Ptp4a1: LN (average fold change): −0.201
  Ptpre: LN (average fold change): −0.452
  Rel: LN (average fold change): −0.305
  Rgs1: LN (average fold change): 0.548
  Rilpl2: LN (average fold change): −0.158
  Rnase6: LN (average fold change): 0.160
  Rnf19b: LN (average fold change): −0.314
  Rpn2: LN (average fold change): 0.272
  Runx3: LN (average fold change): −0.200
  S1pr4: LN (average fold change): 0.331
  Sell: LN (average fold change): 0.172
  Selplg: LN (average fold change): 0.183
  Sf3b1: LN (average fold change): 0.237
  Siah2: LN (average fold change): −0.303
  Skil: LN (average fold change): −0.246
  Sla2: LN (average fold change): 0.243
  Smc6: LN (average fold change): −0.180
  Socs3: LN (average fold change): 0.385
  Spsb2: LN (average fold change): −0.508
  Tgif1: LN (average fold change): −0.548
  Tnfaip8l2: LN (average fold change): 0.307
  Traf4: LN (average fold change): −0.199
  Trim25: LN (average fold change): −0.239
  VgIl4: LN (average fold change): −0.419
  Vps37b: LN (average fold change): −0.292
  Wnk1: LN (average fold change): −0.262
  Zc3h12a: LN (average fold change): −0.495
  Zfand5: LN (average fold change): −0.220
  Zfp36l2: LN (average fold change): 0.365
Gene Abhd17c
  percentage of expressing cells in OVA-treated group: 0.52
Gene Abhd17c, OVA vs PBS
  LN (average fold change): 0.599
Gene Arf6
  percentage of expressing cells in OVA-treated group: 0.429
Gene Arf6, OVA vs PBS
  LN (average fold change): 0.610
Gene Arl4a
  percentage of expressing cells in OVA-treated group: 0.256
Gene Arl4a, OVA vs PBS
  LN (average fold change): 0.781
Gene Arl5c
  percentage of expressing cells in OVA-treated group: 0.04
Gene Arl5c, OVA vs PBS
  LN (average fold change): −1.873
Gene Arpc2
  percentage of expressing cells in OVA-treated group: 0.769
Gene Arpc2, OVA vs PBS
  LN (average fold change): 0.318
Gene BC031181
  percentage of expressing cells in OVA-treated group: 0.365
Gene BC031181, OVA vs PBS
  LN (average fold change): −0.512
Gene Cbarp
  percentage of expressing cells in OVA-treated group: 0.193
Gene Cbarp, OVA vs PBS
  LN (average fold change): 0.886
Gene Ccl1
  percentage of expressing cells in OVA-treated group: 0.203
Gene Ccl1, OVA vs PBS
  LN (average fold change): 1.335
Gene Ccrl2
  percentage of expressing cells in OVA-treated group: 0.192
Gene Ccrl2, OVA vs PBS
  LN (average fold change): −0.742
Gene Cd52
  percentage of expressing cells in OVA-treated group: 0.581
Gene Cd52, OVA vs PBS
  LN (average fold change): 0.644
Gene Cited2
  percentage of expressing cells in OVA-treated group: 0.176
Gene Cited2, OVA vs PBS
  LN (average fold change): −0.724
Gene Cntnap2
  percentage of expressing cells in OVA-treated group: 0.074
Gene Cntnap2, OVA vs PBS
  LN (average fold change): −1.008
Gene Coq10b
  percentage of expressing cells in OVA-treated group: 0.332
Gene Coq10b, OVA vs PBS
  LN (average fold change): −0.690
Gene Cox8a
  percentage of expressing cells in OVA-treated group: 0.798
Gene Cox8a, OVA vs PBS
  LN (average fold change): 0.285
Gene Cwc25
  percentage of expressing cells in OVA-treated group: 0.061
Gene Cwc25, OVA vs PBS
  LN (average fold change): −1.439
Gene Cycs
  percentage of expressing cells in OVA-treated group: 0.531
Gene Cycs, OVA vs PBS
  LN (average fold change): 0.561
Gene Ddx5
  percentage of expressing cells in OVA-treated group: 0.886
Gene Ddx5, OVA vs PBS
  LN (average fold change): −0.276
Gene Dtx1
  percentage of expressing cells in OVA-treated group: 0.05
Gene Dtx1, OVA vs PBS
  LN (average fold change): −1.600
Gene Eef1a1
  percentage of expressing cells in OVA-treated group: 0.997
Gene Eef1a1, OVA vs PBS
  LN (average fold change): 0.236
Gene Eef1b2
  percentage of expressing cells in OVA-treated group: 0.709
Gene Eef1b2, OVA vs PBS
  LN (average fold change): 0.395
Gene Eef2
  percentage of expressing cells in OVA-treated group: 0.927
Gene Eef2, OVA vs PBS
  LN (average fold change): 0.240
Gene Eif1
  percentage of expressing cells in OVA-treated group: 0.996
Gene Eif1, OVA vs PBS
  LN (average fold change): 0.152
Gene Eif3e
  percentage of expressing cells in OVA-treated group: 0.67
Gene Eif3e, OVA vs PBS
  LN (average fold change): 0.416
Gene Eif3h
  percentage of expressing cells in OVA-treated group: 0.686
Gene Eif3h, OVA vs PBS
  LN (average fold change): 0.298
Gene Emd
  percentage of expressing cells in OVA-treated group: 0.235
Gene Emd, OVA vs PBS
  LN (average fold change): −0.729
